This is an account of results in paper PMC8439582 (Nature structural & molecular biology, 2019).

A word on the stoichiometry N: it is a count of units in the complex or per binding partner.

B1: Tom7 (natural protein, S. cerevisiae, UniProt P53507 1-60, looked up)
chain: MSFLPSFILSDESKERISKILTLTHNVAHYGWIPFVLYLGWAHTSNRPNFLNLLSPLPSV
B2: Tom22 with a C-terminal His-tag (natural protein, S. cerevisiae, UniProt P49334 1-152, looked up)
chain: MVELTEIKDDVVQLDEPQFSRNQAIVEEKASATNNDVVDDEDDSDSDFEDEFDENETLLDRIVALKDIVPPGKRQTISNFFGFTSSFVRNAFTKSGNLAWTLTTTALLLGVPLSLSILAEQQLIEMEKTFDLQSDANNILAQGEKDAAATAN
B3: Tom40 with a C-terminal Strep-tag (overexpressed, wild type) (natural protein, S. cerevisiae, UniProt P23644 1-387, looked up)
chain: MSAPTPLAEASQIPTIPALSPLTAKQSKGNFFSSNPISSFVVDTYKQLHSHRQSLELVNPGTVENLNKEVSRDVFLSQYFFTGLRADLNKAFSMNPAFQTSHTFSIGSQALPKYAFSALFANDNLFAQGNIDNDLSVSGRLNYGWDKKNISKVNLQISDGQPTMCQLEQDYQASDFSVNVKTLNPSFSEKGEFTGVAVASFLQSVTPQLALGLETLYSRTDGSAPGDAGVSYLTRYVSKKQDWIFSGQLQANGALIASLWRKVAQNVEAGIETTLQAGMVPITDPLMGTPIGIQPTVEGSTTIGAKYEYRQSVYRGTLDSNGKVACFLERKVLPTLSVLFCGEIDHFKNDTKIGCGLQFETAGNQELLMLQQGLDADGNPLQALPQL
B4: core TOM complex from S. cerevisiae (Tom40, Tom22, Tom5, Tom6, Tom7) (complex)
chain 1: B3 chain
chain 2: B2 chain
chain 3: MFGLPQQEVSEEEKRAHQEQTEKTLKQAAYVAAFLWVSPMIWHLVKKQWK
chain 4: MDGMFAMPGAAAGAASPQQPKSRFQAFKESPLYTIALNGAFFVAGVAFIQSPLMDMLAPQL
chain 5: B1 chain
B5: Tom6 (natural protein, S. cerevisiae, UniProt P33448 1-61, looked up)
chain: B4 chain 4

Series [1] concerns the target B3. In words: cryo-EM structure.
Series [2] concerns the molecule itself. Kind of series: cryo-EM structure.
Series [3] deals with the molecule itself. In words: SEC.
The target in series [4] is B3. Kind of series: cryo-EM structure. This is another data set of the same source.
The target of series [5] is B2. Kind of series: cryo-EM structure.

Where two headings read alike, the source gives them in different places.

Regarding B1, the binding result in series [1] was “binds”.

In the case of B2, in series [1], the binding result was “binds”.

As to B3, the binding result in series [2] is recorded as “binds”.

As for B4, the “stoichiometry N” value in series [3] is 2.

In the case of B5, the binding result in series [4] is listed as “binds”.

As to MFGLPQQEVSEEEKRAHQEQTEKTLKQAAYVAAFLWVSPMIWHLVKKQWK (natural protein, S. cerevisiae, UniProt P80967 1-50, looked up) [Tom5], the binding result in series [5] and in series [1] was “binds” each time.
